Measurements published in article PMC4286497.

System: Nc1ncnc2c1ncn2[C@@H]1O[C@H](COP(=O)(O)OP(=O)(O)OP(=O)(O)O)[C@@H](O)[C@H]1O
Experiment: purified protein
[1] = saturating taxol-stabilized MTs, no ATPγS, pH 7.2, 2 mM MgCl2

Substance | Km (pH 7.2) [µM] | Km [1] [µM] | kcat [1] [s⁻¹]
WT dynein (GST-Dyn1_331kD) (Saccharomyces cerevisiae S288C; K2424A) | 38 ± 3 | – | –
WT dynein (GST-Dyn1_331kD) (Saccharomyces cerevisiae S288C) | – | 46 ± 5 | 17.0 ± 0.5
